In patent US20170145113A1 (Genentech, published 2017):
Values belong to the molecule of their own block, whether it stands above or below them.

What was measured:
h15H6.v1 HC-A71R variant = test: phage competition ELISA: phage-displayed Fab preincubated with soluble murine HtrA1, unbound phage captured on coated huHtrA1-PD-His, OD450
h15H6.v1 LC-S49Y variant = test: as above
[1] = target: T1, murine HtrA3 protease domain (murine, UniProt Q9D236 135-350, limits assumed); test: ELISA, hybridoma clone
T1 construct: domain: PD (protease domain); also called muHtrA3-PD; murine HtrA3-PD
T1 sequence (looked up): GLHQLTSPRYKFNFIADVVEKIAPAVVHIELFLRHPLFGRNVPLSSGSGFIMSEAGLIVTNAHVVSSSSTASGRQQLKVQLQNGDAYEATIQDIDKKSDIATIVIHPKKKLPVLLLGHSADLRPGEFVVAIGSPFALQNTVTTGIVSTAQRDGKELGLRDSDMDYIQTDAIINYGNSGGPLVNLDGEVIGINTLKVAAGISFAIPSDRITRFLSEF

[2] = target: T2, murine HtrA4 protease domain (murine, UniProt A2RT60 160-371, limits assumed); test: ELISA, hybridoma clone
T2 construct: domain: PD (protease domain); also called muHtrA4-PD; murine HtrA4-PD
T2 sequence (looked up): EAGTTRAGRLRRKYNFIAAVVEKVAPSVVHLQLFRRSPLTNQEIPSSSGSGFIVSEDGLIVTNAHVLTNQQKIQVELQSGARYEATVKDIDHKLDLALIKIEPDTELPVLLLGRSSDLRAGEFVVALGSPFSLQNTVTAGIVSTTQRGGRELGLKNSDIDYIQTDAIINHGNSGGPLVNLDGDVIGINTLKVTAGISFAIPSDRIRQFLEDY

[3] = target: T3, His-tagged recombinant murine HtrA1 protease domain (murine, UniProt Q9R118 156-367); test: ELISA, antigen coated on plate, hybridoma clone
T3 construct: His-tagged protease domain; also called muHtrA1-PD-His; muHtrA1-PD
Method: (§1) ELISA was performed according to a standard protocol. Briefly, 96-well microliter ELISA plates (Greiner, Germany) were coated with 100 μl/well muHtrA1-PD-His or huHtrA1-PD-His (SEQ ID NO: 154) at 2 μg/ml in 0.05 M carbonate buffer (pH 9.6) at 4° C. overnight. After washing three times with wash buffer (0.05% TWEEN®20 in PBS, Sigma), plates were blocked with 100 μl ELISA assay diluents with BSA. 100 μl of cultured supernatants or diluted purified monoclonal antibodies (mAbs) were added and incubated for 1 h at room temperature. The plates were washed three times and incubated with HRP-conjugated goat anti-mouse IgG Fc for 1 h. After washing three times, bound enzyme was detected by addition of 100 μl/well of the TMB substrate (BioFX Laboratories) for 5 min. The reactions were stopped by adding 100 μl/well of stop reagent (BioFX Laboratories), followed by detection of color at absorbance 650 nm (A_{650 nm}).

[4] = target: T4, His-tagged human HtrA1 protease domain (human, UniProt Q92743 161-367); test: ELISA, antigen coated on plate, hybridoma clone
T4 construct: His-tagged protease domain; also called huHtrA1-PD-His; huHtrA1-PD
Method: as §1

[5] = target: T4, His-tagged human HtrA1 protease domain; test: SPR (BIACORE), Fab
[6] = target: T5, LA-pep1, peptide corresponding to residues 190-201 of the human HtrA1 sequence (human); test: SPR, peptide and Fab
T5 construct: Synthetic peptide; numbering of the human HtrA1 precursor protein; also called LA-pepl; HtrA1 Loop A (LA) peptide
T5 peptide: RKLPFSKREVPV

[7] = target: T4, His-tagged human HtrA1 protease domain; test: cell-based or functional assay
[8] = target: endogenous HtrA1 from media of HtrA1-secreting human C32 melanoma cells (human, UniProt Q92743 23-480); test: cell-based or functional assay
LA-pep2 = target: T6, LA-pep2; test: SPR, peptide and Fab
T6 construct: The changed residue is printed as an image; A is put in by the column 'AA change' (R1A); also called R1A
T6 peptide: AKLPFSKREVPV

LA-pep3 = target: T7, LA-pep3; test: SPR, peptide and Fab
T7 construct: The changed residue is printed as an image; A is put in by the column 'AA change' (L3A); also called L3A
T7 peptide: RKAPFSKREVPV

LA-pep4 = target: T8, LA-pep4; test: SPR, peptide and Fab
T8 construct: The changed residue is printed as an image; A is put in by the column 'AA change' (P4A); also called P4A
T8 peptide: RKLAFSKREVPV

LA-pep5 = target: T9, LA-pep5; test: SPR, peptide and Fab
T9 construct: The changed residue is printed as an image; A is put in by the column 'AA change' (F5A); also called F5A
T9 peptide: RKLPASKREVPV

LA-pep6 = target: T10, LA-pep6; test: SPR, peptide and Fab
T10 construct: The changed residue is printed as an image; A is put in by the column 'AA change' (R8A); also called R8A
T10 peptide: RKLPFSKAEVPV

[9] = target: T4, His-tagged human HtrA1 protease domain; test: cell-based or functional assay; remark: listed apart in the source
[10] = target: T4, His-tagged human HtrA1 protease domain; test: BIACORE SPR analysis, Fab format
Method: To determine the binding affinity of selected Fab variants for HtrA1, SPR measurement with a BIACORE™ T200 instrument was performed. Briefly, a series S sensor chip CM5 was activated with 1-EDC and NHS reagents according to the supplier's instructions, and anti-His antibody was coupled to achieve 200-300 response units (RU), then following by blocking un-reacted groups with 1 M ethanolamine. For kinetics measurements, approximately 5 nM of huHtrA1-PD-His was first injected at 10 μl/min flow rate to capture approximately 100 RU at 2 different flow cells (FC), except for FC1 (which served as a reference). Next, 5-fold serial dilutions of Fab in HBS-P buffer (0.01M HEPES pH 7.4, 0.15M NaCl, 0.005% surfactant P20) from low (0.8 nM) to high (50 nM) were injected (flow rate: 30 μl/min). The binding responses on HtrA1 were corrected by subtracting of RU from a blank flow cell. The sensorgram was recorded and subject to reference and buffer subtraction before evaluating by BIACORE® T200 Evaluation Software (version 2.0). Association rates (kₒₙ) and dissociation rates (koff) were calculated using a simple one-to-one Langmuir binding model. The equilibrium dissociation constant (KD) was calculated as the ratio of koff/kₒₙ.

[11] = target: T4, His-tagged human HtrA1 protease domain; test: BIACORE T200 SPR; Fab analyte over huHtrA1-PD-His captured by anti-His antibody

T4 sequence (Q92743 other isoform, or with tags, fused parts or gaps limits assumed): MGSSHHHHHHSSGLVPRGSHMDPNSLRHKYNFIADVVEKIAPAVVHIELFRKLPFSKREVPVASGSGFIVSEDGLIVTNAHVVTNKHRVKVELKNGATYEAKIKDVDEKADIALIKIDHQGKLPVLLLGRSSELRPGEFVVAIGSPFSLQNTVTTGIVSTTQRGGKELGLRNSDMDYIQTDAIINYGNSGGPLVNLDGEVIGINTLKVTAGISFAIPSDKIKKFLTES
Sequence of endogenous HtrA1 from media of HtrA1-secreting human C32 melanoma cells (Q92743 23-480 limits assumed): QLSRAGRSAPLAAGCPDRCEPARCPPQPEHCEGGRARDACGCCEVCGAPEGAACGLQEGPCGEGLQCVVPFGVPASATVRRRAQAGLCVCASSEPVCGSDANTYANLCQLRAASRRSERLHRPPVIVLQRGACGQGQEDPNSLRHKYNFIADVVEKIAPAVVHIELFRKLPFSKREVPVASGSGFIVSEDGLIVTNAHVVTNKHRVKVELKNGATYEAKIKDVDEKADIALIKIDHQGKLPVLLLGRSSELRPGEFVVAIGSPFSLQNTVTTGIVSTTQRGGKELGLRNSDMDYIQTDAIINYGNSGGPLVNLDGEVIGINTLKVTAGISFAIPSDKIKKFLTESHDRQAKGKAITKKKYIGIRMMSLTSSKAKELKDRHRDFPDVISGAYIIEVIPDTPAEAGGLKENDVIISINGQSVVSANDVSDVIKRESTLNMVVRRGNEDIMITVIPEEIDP

- IC50 (read off the curve) (h15H6.v1 HC-A71R variant): 0.1 nM
- IC50 (read off the curve) (h15H6.v1 LC-S49Y variant): 0.6 nM
Molecule: His-tagged recombinant murine HtrA1 protease domain (from UniProt Q9R118 156-367) (enzyme)

- binding result [1]: no binding
- binding result [2]: no binding
- binding result [3]: binds
- binding result [4]: binds
B1: anti-HtrA1 hybridoma antibody clone 20E2 (antibody, V domains shown)
VH: EVKLVESGGGLVQPGGSLKLSCAASGFTFSSYIMSWVRQTPEKRLEWVAYISNGGGTTYYPDTIKGRFTISRDNAKNTLYLQMNTLKSEDTAIYFCARQNFRSDGSSMDYWGQGTSVTVSS
VL: NIVLTQSPASLAVSLGQRATISCRASESVDTSGRSFMHWYQQKPGQPPRLLIYLASKLESGVPARFSGSGSRTDFTLTIDPVEADDAATYYCQQNNEDPYTFGGGTNLEIK

- binding result [1]: no binding
- binding result [2]: no binding
- binding result [3]: binds
- binding result [4]: binds
B2: anti-HtrA1 hybridoma antibody clone 3A5 (antibody, V domains shown)
VH: DVHLVESGGGLVRPGGSRKLSCEASGFTFSSFGMHWVRQAPEKGLEWVAFITSDSSTIYYADTVKGRFTISRDNPKNTLFLQMTSLRSEDTAMYYCTRSGDDYLDYWGQGTTLTVSS
VL: DIVLTQSPASLAVSLGQRATISCRASQSVSTSSSSYMHWYQQKPGQPPKVFIKYASNLESGVPARFSGSGSGTDFTLSIHPVEEEDTATYYCQHSWEIPFTFGGGTKLEIK

- fold improvement in affinity against YW505.94a.28 Fab [5]: ~30 fold
- Kd [6]: 0.4 nM
- IC50, FRET-based H2-Opt blocking assay [7]: ~0.386 nM
- IC50, mass spectrometry-based activity assay (cleavage of intact α-casein) [7]: ~45 nM
- IC50, endogenous HtrA1 activity assay (H2-Opt) [8]: ~1.12 nM
- Kd (LA-pep2): 321 nM
- affinity loss (KD mutant/KD wild-type) (LA-pep2): 810 fold
- affinity loss (KD mutant/KD wild-type) (LA-pep3): > 2500 fold
- affinity loss (KD mutant/KD wild-type) (LA-pep4): > 2500 fold
- Kd (LA-pep5): 4.53 nM
- affinity loss (KD mutant/KD wild-type) (LA-pep5): 11 fold
- affinity loss (KD mutant/KD wild-type) (LA-pep6): > 2500 fold
- IC50 FRET (H2-Opt substrate cleavage) [9]: 0.3 nM
- IC90 FRET (H2-Opt substrate cleavage) [9]: 1.19 nM
- Max inhibition (FRET H2-Opt assay) [9]: 100
- Kd [10]: 0.106 nM
- koff [10]: 3.29e-05 s⁻¹
- kon [10]: 309000 M⁻¹ s⁻¹
- Kd [11]: 0.106 nM
- koff [11]: 3.29e-05 s⁻¹
- kon [11]: 309000 M⁻¹ s⁻¹
B3: h15H6.v4 Fab (Fab, V domains shown)
VH: EVQLVQSGAEVKKPGASVKVSCKASGYKFTDSEMHWVRQAPGQGLEWIGGVDPETEGAAYNQKFKGRATITRDTSTSTAYLELSSLRSEDTAVYYCTRGYDYDYALDYWGQGTLVTVSS
VL: DIQMTQSPSSLSASVGDRVTITCRASSSVEFIHWYQQKPGKAPKPLISATSNLASGVPSRFSGSGSGTDFTLTISSLQPEDFATYYCQQWSSAPWTFGQGTKVEIK
notes: Tested as Fab; also called APEG.LC3.HC3; Fab15H6.v4
- binding result (LA-pep3): no binding (tested: no binding detected up to 1 µM)
- binding result (LA-pep4): no binding (tested: no binding detected up to 1 µM)
- binding result (LA-pep6): no binding (tested: no binding detected up to 1 µM)
